Source: publication PMC3041752

How the values were obtained:
[1] = target: human Proliferating Cell Nuclear Antigen (PCNA) (human); assay: AUC; sedimentation velocity, 100 µM protein (monomer concentration); trimer to monomers
[2] = target: human Proliferating Cell Nuclear Antigen (PCNA) (human); assay: SEC-MALS; gel filtration coupled to multi-angle light scattering; 3 or 0.3 mg/ml (~100 or 10 µM) in 20 mM sodium phosphate, 150 mM NaCl, 0.03% (w/v) sodium azide, pH 7.0
[3] = target: budding yeast Proliferating Cell Nuclear Antigen (PCNA) (budding yeast); assay: AUC; sedimentation velocity, 100 µM protein (monomer concentration); trimer to monomers
[4] = target: budding yeast Proliferating Cell Nuclear Antigen (PCNA) (budding yeast); assay: SEC-MALS; gel filtration coupled to multi-angle light scattering; 3 or 0.3 mg/ml (~100 or 10 µM) in 20 mM sodium phosphate, 150 mM NaCl, 0.03% (w/v) sodium azide, pH 7.0

population of monomers in equilibrium with the trimer [1] [%]	stoichiometry N [1]	population of species with the molecular weight of a dimer of trimers [2] [%]	stoichiometry N [2]	population of monomers in equilibrium with the trimer [3] [%]	stoichiometry N [3]	population of species with the molecular weight of a dimer of trimers [4] [%]	stoichiometry N [4]	Substance
< 3	3	< 4	3	–	–	–	–	human Proliferating Cell Nuclear Antigen (PCNA) (natural protein)
–	–	–	–	< 3	3	< 4	3	budding yeast Proliferating Cell Nuclear Antigen (PCNA) (natural protein)
